Results on five molecules are retold here after patent US20200239579A1 (Genmab, published 2020).

The target of assay [1] is T1, PDLoneECDHisCtag (human, UniProt Q9NZQ7 19-238).
T1 construct: Expressed in HEK-293F cells; theoretical molecular weight 29 kDa; also called recombinant human PD-L1 ECD; human PD-L1 (BLI); not shown: C-terminal His-tag; C-tag
Kind of assay: BLI cross-block, second antibody on PDLoneECDHisCtag held by immobilised 338; bold = blocking. The method, then: (§1) Antibody cross-block testing was performed using biolayer interferometry (BLI) on an Octet HTX instrument (ForteBio). Antibodies (20 μg/ml in 10 mM sodium acetate buffer pH 6.0 (ForteBio)) were immobilized on Amine-Reactive 2nd Generation (AR2G) biosensors (ForteBio) according to the instructions of the manufacturer. After a baseline (50 s) in Sample Diluent (ForteBio), biosensors containing immobilized antibodies were loaded for 500 s with PDLoneECDHisCtag (100 nM or 2.7 μg/ml), after which the association response of a second antibody (10 μg/ml) was followed for 500 s. Biosensors were regenerated by using 3 times 5 s alternating exposures to 10 mM glycine pH 2.5 and Sample Diluent. The experiment was repeated with a new set of second antibodies starting from the baseline step. Each biosensor was used 6 times. The experiment was performed at 30° C. using a shaker speed of 1000 rpm. Data was analyzed using Data Analysis Software v9.0.0.12 (ForteBio). The Y-axis was aligned to the association step and Savitzky-Golay filtering was applied. The average buffer response was subtracted from the association response of the second antibody in order to correct for the dissociation of PDLoneECDHisCtag from the immobilized antibody. The corrected association responses were plotted in a matrix format.

The target of assay [2] is T1, PDLoneECDHisCtag. Kind of assay: BLI cross-block, second antibody on PDLoneECDHisCtag held by immobilised 547; bold = blocking. The method, then: as §1
The target of assay [3] is T1, PDLoneECDHisCtag. Kind of assay: BLI cross-block, second antibody on PDLoneECDHisCtag held by immobilised 321; bold = blocking. The method, then: as §1
Assay [4] addresses T1, PDLoneECDHisCtag. Kind of assay: BLI cross-block, second antibody on PDLoneECDHisCtag held by immobilised 516; bold = blocking. The method, then:
as §1

Assay [5] addresses T1, PDLoneECDHisCtag. Kind of assay: BLI cross-block, second antibody on PDLoneECDHisCtag held by immobilised MEDI; bold = blocking. The method, then:
as §1

Assay [6] has as its target T1, PDLoneECDHisCtag. Kind of assay: BLI cross-block, second antibody on PDLoneECDHisCtag held by immobilised MPDL; bold = blocking. The method, then:
as §1

Assay [7] addresses T1, PDLoneECDHisCtag. Kind of assay: BLI cross-block, second antibody on PDLoneECDHisCtag held by immobilised 632; plain = non-blocking. The method, then: as §1
In assay [8] the target is T1, PDLoneECDHisCtag. Kind of assay: BLI cross-block, second antibody on PDLoneECDHisCtag held by immobilised 421-LC91S; bold = blocking. The method, then:
as §1

For assay [9], the target named is T1, PDLoneECDHisCtag. Kind of assay: BLI cross-block, second antibody on PDLoneECDHisCtag held by immobilised 511-LC33S; plain = non-blocking. The method, then: as §1
Assay [10] concerns the target T1, PDLoneECDHisCtag. Kind of assay: BLI cross-block, second antibody on PDLoneECDHisCtag held by immobilised 476-N101Q-LC33S; plain = non-blocking. The method, then:
as §1

In assay [11] the target is T1, PDLoneECDHisCtag. Kind of assay: BLI cross-block, second antibody on PDLoneECDHisCtag held by immobilised 632; bold = blocking. The method, then:
as §1

In assay [12] the target is T1, PDLoneECDHisCtag. Kind of assay: BLI cross-block, second antibody on PDLoneECDHisCtag held by immobilised 547; plain = non-blocking. The method, then:
as §1

Assay [13] has as its target T1, PDLoneECDHisCtag. Kind of assay: BLI cross-block, second antibody on PDLoneECDHisCtag held by immobilised 511-LC33S; bold = blocking. The method, then:
as §1

Assay [14] deals with T1, PDLoneECDHisCtag. Kind of assay: BLI cross-block, second antibody on PDLoneECDHisCtag held by immobilised 516; plain = non-blocking. The method, then:
as §1

The target in assay [15] is T1, PDLoneECDHisCtag. Kind of assay: BLI cross-block, second antibody on PDLoneECDHisCtag held by immobilised 421-LC91S; plain = non-blocking. The method, then: as §1
In assay [16] the target is T1, PDLoneECDHisCtag. Kind of assay: BLI cross-block, second antibody on PDLoneECDHisCtag held by immobilised 476-N101Q-LC33S; bold = blocking. The method, then: as §1
For assay [17], the target named is T2, human PD-L2 (full length, on CHO cells) (human, UniProt Q9BQ51 20-273).
T2 construct: whole, on cells; also called CHO-PD-L2 cells
T2 sequence (looked up): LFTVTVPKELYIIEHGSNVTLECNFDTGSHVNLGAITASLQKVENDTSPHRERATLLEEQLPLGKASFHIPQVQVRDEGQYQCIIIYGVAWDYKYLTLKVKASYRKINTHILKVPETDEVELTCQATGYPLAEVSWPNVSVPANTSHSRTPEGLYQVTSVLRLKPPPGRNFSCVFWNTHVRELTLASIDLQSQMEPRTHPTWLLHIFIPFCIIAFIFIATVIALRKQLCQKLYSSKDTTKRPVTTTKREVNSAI
Kind of assay: flow cytometry on CHO cells expressing human PD-L2. The method, then: (§2) Cells (3-5×10⁴ cells/well) were incubated in polystyrene 96-well round-bottom plates (Greiner bio-one, cat. no. 650101) with serial dilutions of antibodies (range 0.0001 to 10 μg/mL in 5-fold dilution steps) in 50 μL PBS/0.1% BSA/0.02% azide (staining buffer) at 4° C. for 30 min.
(§3) After washing twice in staining buffer, cells were incubated in 50 μL secondary antibody at 4° C. for 30 min. As a secondary antibody, R-Phycoerythrin (PE)-conjugated goat-anti-human IgG F(ab′)₂ (Cat. no. 109-116-098, Jackson ImmunoResearch Laboratories, Inc., West Grove, Pa.) diluted 1:500 in staining buffer, was used for all experiments. Next, cells were washed twice in staining buffer, re-suspended in 20 μL staining buffer and analyzed on an iQue screener (Intellicyt Corporation, USA). Binding curves were analyzed using non-linear regression (sigmoidal dose-response with variable slope) using GraphPad Prism V75.04 software (GraphPad Software, San Diego, Calif., USA).
A PE-conjugated PD-L2 specific antibody (Mylteni, clone MIH18; cat. no. 130-098-651) was used as positive control.
A general note: A flow cytometer gives signals particle by particle.

The target of assay [18] is T3, human PD-L1 (full length, on cells) (human, UniProt Q9NZQ7 19-290).
T3 construct: The entry holds the signal peptide; also called CD274; B7H1
Kind of assay: flow cytometry on MDA-MB-231 cells, PE anti-human IgG secondary, MFI (PE). The method, then:
as §2, §3

For assay [19], the target named is T4, cynomolgus monkey PD-L1 (full length, on CHO cells) (cynomolgus monkey (Macaca fascicularis), UniProt G7PSE7 19-290).
T4 construct: whole, on cells; also called PDL1 Mf; cynomolgus PD-L1
Kind of assay: flow cytometry on CHO cells transfected with cynomolgus PD-L1, PE anti-human IgG secondary, MFI (PE). The method, then: as §2, §3
Binding to CHO cells expressing cynomolgus PD-L1 was determined by flow cytometry using a method as described above.

T1 sequence (Q9NZQ7 19-238, form in doubt): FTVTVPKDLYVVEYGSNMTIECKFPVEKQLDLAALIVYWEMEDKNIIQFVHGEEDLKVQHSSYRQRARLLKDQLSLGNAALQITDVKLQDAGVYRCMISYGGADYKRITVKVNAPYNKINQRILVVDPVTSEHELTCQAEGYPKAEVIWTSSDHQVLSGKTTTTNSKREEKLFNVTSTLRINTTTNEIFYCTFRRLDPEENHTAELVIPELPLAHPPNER
T4 sequence (G7PSE7 entry or part of it): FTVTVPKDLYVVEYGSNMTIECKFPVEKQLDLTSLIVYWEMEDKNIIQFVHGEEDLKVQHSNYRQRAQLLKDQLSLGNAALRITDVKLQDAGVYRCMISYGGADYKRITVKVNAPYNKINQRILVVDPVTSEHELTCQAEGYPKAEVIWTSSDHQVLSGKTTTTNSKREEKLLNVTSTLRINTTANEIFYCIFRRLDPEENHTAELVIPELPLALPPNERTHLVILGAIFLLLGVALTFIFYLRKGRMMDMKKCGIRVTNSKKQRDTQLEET
T3 sequence (Q9NZQ7 19-290 limits assumed): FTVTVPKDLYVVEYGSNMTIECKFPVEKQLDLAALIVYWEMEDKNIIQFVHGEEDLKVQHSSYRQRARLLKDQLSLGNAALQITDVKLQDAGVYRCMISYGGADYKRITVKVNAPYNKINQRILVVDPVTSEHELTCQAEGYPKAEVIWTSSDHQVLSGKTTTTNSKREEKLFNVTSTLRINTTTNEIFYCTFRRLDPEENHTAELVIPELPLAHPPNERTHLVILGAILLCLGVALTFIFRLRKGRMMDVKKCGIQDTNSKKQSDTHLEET

B1: IgG1-421-LC91S-FEAR (antibody, V domains shown)
VH: EVQLVESGGGLVQPGRSLRLSCAASGFTFDDYAMHWVRQGPGKGLEWVSGIRWNSGSMHYADSVKGRFTISRDNAKSSLYLQMNSLRAEDTALYYCARAPWYSGAWHPDYWGQGTLVTVSS
VL: QSALTQPRSVSGSPGQSVTISCTGTSSDVGTYNYVSWYQQHPGKAPKLMIYDVIKRPSGVPDRFSGSKSGNTASLTLSGLQAEDEADYYCSSYAGTYTLLFGGGTKLTVL
For the molecule B1, the “association response of the second antibody” value (“association response” below) was 0 nm in assay [1]; 0 nm in assay [2]; 0 nm in [3]; -0.1 nm in assay [4]; 0 nm in [5]; 0 nm in assay [6]. For the same molecule, the “association response” value in [7] was 0.6 nm; in assay [8] it was 0 nm; in [9] it was 0.6 nm; in assay [10], 0.8 nm.

B2: IgG1-632-FEAR (antibody, V domains shown)
VH: QVQLVESGGGLVKPGGSLRLSCAASGFTFSDYYMSWIRQAPGKGLEWVSYIGSSSNTIYYADSVKGRFTISRDNAKNSLYLQMNSLRAEDTAVYSCARDRVKYGSPGSLFDYWGQGTLVTVSS
VL: SYELTQPPSVSVSPGQTARITCSGDALPKKYAFWYQQKSGQAPVLVIYEDSKRPSGIPERFSGSSSGTMATLTISGAQVEDEADYYCYSTASSGDHRVFGGGTKLTVL
On to B2, for which the “association response” value in assay [11] was found to be 0 nm; in assay [12] it was 0.7 nm; in assay [13], 0 nm; in assay [14], 1.1 nm; in assay [15] it was 0.2 nm; in assay [16] it was 0 nm.

B3: IgG1-476-N101Q-LC33S-FEAR (antibody, V domains shown)
VH: EVQMLESGGGLVQPGGSLRLSCAASGFTFRSYAMSWVRQAPGKGLEWVSGIGDSGGSTYHADSVKGRFTISRDNSKNTLYLQMNSLRAEDTAVYYCAKLGQSSGWYDHYYYYGMDVWGQGTTVTVSS
VL: SYELTQPPSVSVSPGQTASITCSGDKLGNKYVSWFQQKPGQSPVLVIYRDSERPSGIPERFSGSNSGNTATLTISGTQAVDEADFYCQAWDSSTVVFGGGTKLTVL
B3: the “association response” value came out at 0 nm in [11]; 0.8 nm in [12]; 0 nm in [13]; 1.2 nm in assay [14]; 0.4 nm in assay [15]; 0 nm in [16].

B4: IgG1-321-FEAR (antibody, V domains shown)
VH: EVQLVESGGGLVQPGGSLRLSCAASGFTFSSYWMSWVRQAPGKGLEWVANIKQDGNEKYYVDSVKGRFTISRDNAKNSLYVQMNSLRAEDTAVYYCARDLYYGSGTYPPFDYWGQGTLVTVSS
VL: DIQMTQSPSTLSASVGDRVTITCRASQSISSWLAWYLQKPGKAPKLLIYKASSLESGVPSRFSGSGSGTEFTLTISSLQPDDFATYYCQQYHSSSYTFGQGTKLEIK
B4: the “association response” value in [1], in [2], in [3], in assay [5], in assay [6] and in [13] was 0 nm in each case. Besides, the “association response” value in assay [14] was 1.1 nm; in assay [7], 0.6 nm; in assay [8], -0.1 nm.

B5: bsIgG1-huCD3-H1L1-FEAL×511-LC33S-FEAR (bispecific antibody)
heavy 1: not shown
VL: not shown
heavy 2: QVQLVQSGSELKKPGASVMVSCKASGYTFTSYVMNWVRQAPGQGLEWMGWINSYTGNPTSAQGFTGRFVFSFDTSVNTAYLQISSLKAEDTAVYYCARGYCTSTSCYLDYWGQGTLVTVSSASTKGPSVFPLAPSSKSTSGGTAALGCLVKDYFPEPVTVSWNSGALTSGVHTFPAVLQSSGLYSLSSVVTVPSSSLGTQTYICNVNHKPSNTKVDKRVEPKSCDKTHTCPPCPAPEFEGGPSVFLFPPKPKDTLMISRTPEVTCVVVAVSHEDPEVKFNWYVDGVEVHNAKTKPREEQYNSTYRVVSVLTVLHQDWLNGKEYKCKVSNKALPAPIEKTISKAKGQPREPQVYTLPPSREEMTKNQVSLTCLVKGFYPSDIAVEWESNGQPENNYKTTPPVLDSDGSFFLYSRLTVDKSRWQQGNVFSCSVMHEALHNHYTQKSLSLSPGK
light: SYELTQPPSVSVSPGHTARITCSGDALPKKYASWFQQKSGQAPVLVIYEDSKRPSGIPERFSGSTSGTMATLTISGAQVEDETDYYCYSADTSGTHRVFGGGTKLTVLGQPKAAPSVTLFPPSSEELQANKATLVCLISDFYPGAVTVAWKADSSPVKAGVETTTPSKQSNNKYAASSYLSLTPEQWKSHRSYSCQVTHEGSTVEKTVAPTECS
Turning to B5, the binding result is “no binding” in [17] and “binds” in assay [18]. In addition, the “EC50 (read off the curve)” value in assay [19] is approximately 0.3 µg/mL.

The EC50 (read off the curve) is the concentration giving half of the maximal effect.
